Test [1] concerns the target GVL peptide-HLA-A2 complex (human). The test is described as follows: cell-based or functional assay.
For test [2] the target is unchanged. The test is described as follows: flow cytometry, T2 cells pulsed with 50 to 0.1 µg/ml GVL peptide.

BB7.2 mAb (antibody) displayed a CDC of T2 cells pulsed with 50 to 0.1 µg/ml GVL peptide, antibody 10 µg/ml in test [1] of 53 to 70%. This substance also displayed an MFI in test [2] of 250 to 350 MFI.
